# Measurements reported in patent US9493781B2, “Synthetic brassica-derived chloroplast transit peptides” (DOW AGROSCIENCES LLC, priority 2012, dated 2016).
# Tests used:
# Arabidopsis [1] = assay: dgt-28, dgt-32, dgt-33, dgt-3, dgt-7 transformed Arabidopsis (T1, T2, T3) response to postemergence glyphosate, % visual injury; assay type: in vivo, Arabidopsis thaliana; conditions: 14 days after application
# In short: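 Transgenic T1, T2 and T3 Arabidopsis (low-copy events for T2/T3, hemizygous and homozygous in T2) sprayed postemergence with glyphosate at 105, 420, 1,680 or 3,360 g ae/ha. Visual injury scored 2 weeks after treatment as mean, SD and range. Non-transformed Columbia served as sensitive control.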
# Arabidopsis [2] = assay: Heritability progeny test of T1 families (T2 plants) with glufosinate, Arabidopsis; assay type: in vivo, Arabidopsis thaliana; conditions: progeny test of 100 T2 plants, glufosinate 200 g ae/ha
# From the text: Heritability. Confirmed transgenic T1 Arabidopsis events were self-pollinated to produce T2 seed. These seed were progeny tested by applying Ignite™ herbicide containing glufosinate (200 g ae/ha) to 100 random T2 siblings. […] The T1 families (T2 plants) segregated in the anticipated 3 Resistant: 1 Sensitive model for a dominantly inherited single locus with Mendelian inheritance as determined by Chi square analysis (P>0.05). […] Seed were collected from 5 to 15 T2 individuals (T3 seed). Twenty-five T3 siblings from each of 3-4 randomly-selected T2 families were progeny tested as previously described.
# [3] = Table 8, T1 Arabidopsis, 105 g ae/ha glyphosate
# [4] = Table 8, T1 Arabidopsis, 420 g ae/ha glyphosate
# [5] = Table 8, T1 Arabidopsis, 1680 g ae/ha glyphosate
# [6] = Table 8, T1 Arabidopsis, 3360 g ae/ha glyphosate
# [7] = Table 10, T1 Arabidopsis, 1,680 g ae/ha glyphosate
# [8] = Table 12, T2 Arabidopsis, 1 copy, 420 g ae/ha glyphosate
# [9] = Table 12, T2 Arabidopsis, 1 copy, 840 g ae/ha glyphosate
# [10] = Table 12, T2 Arabidopsis, 1 copy, 1680 g ae/ha glyphosate
# [11] = Table 12, T2 Arabidopsis, 1 copy, 3360 g ae/ha glyphosate
molecule,measurement,setting,value
"pDAB105532: TraP9 v2 -- dgt-28 v5: binary construct TraP9 v2: dgt-28 v5 (SEQ ID NO:35) (nucleic acid, In-frame fusion of dgt-28 v5 and TraP9 v2) DNA: ATGGCACAAGCCAGCCGTATCTGCCAGAATCCATGTGTGATATCCAATCTCCCCAAAAGCAACCACCGTAAGTCCCCTTTCTCTGTCTCACTCAAGACGCATCAGCCTAGAGCCTCTTCATGGGGACTTAAGAAGTCTGGCACCATGCTGAACGGTTCAGTGATTAGACCCGTCAAGGTGACAGCTTCTGTTTCCGCAGCAAGAGGGATGCCAGCCTTGTCTTTACCTGGATCAAAGAGTATCACAGCTAGGGCACTCTTTCTTGCTGCTGCTGCTGATGGGGTTACTACTTTGGTGAGGCCATTGAGAAGTGACGACACAGAAGGATTCGCTGAGGGGTTAGTTCGTTTAGGCTATCGTGTAGGGAGGACACCCGATACTTGGCAAGTCGATGGCAGACCACAAGGACCAGCAGTGGCTGAGGCTGACGTCTACTGTAGAGACGGAGCAACCACCGCTAGATTCTTGCCAACCTTAGCAGCTGCTGGTCACGGAACATACAGATTTGATGCTTCACCACAGATGAGGAGACGTCCTCTTTTGCCCTTAAGCAGAGCCTTGAGGGATTTGGGTGTCGATCTTAGACACGAAGAAGCTGAAGGTCATCACCCTCTGACTGTCCGTGCTGCTGGGGTTGAAGGAGGAGAGGTTACTTTGGATGCTGGTCAGTCAAGTCAGTATCTCACTGCCTTGTTGCTCCTTGGTCCCCTTACAAGACAAGGACTGAGGATAAGGGTTACTGATTTGGTGTCAGCACCATACGTGGAGATTACGCTTGCAATGATGAGGGCTTTCGGAGTTGAAGTGGCAAGGGAGGGAGATGTGTTCGTTGTTCCACCTGGTGGATATCGTGCAACTACGTATGCTATAGAACCCGACGCAAGTACTGCTTCTTACTTCTTCGCAGCTGCTGCTTTGACTCCTGGAGCTGAAGTGACTGTACCTGGGTTAGGCACGGGAGCACTTCAAGGAGATTTGGGATTTGTAGATGTCTTAAGGAGAATGGGAGCCGAGGTGTCCGTAGGAGCTGATGCAACCACTGTTAGAGGAACTGGTGAATTGCGTGGCCTTACAGCCAACATGAGAGACATAAGTGATACGATGCCGACCCTCGCTGCAATAGCACCCTTTGCTAGTGCTCCAGTTAGAATCGAGGATGTTGCCAACACTCGTGTCAAAGAATGTGACAGACTTGAGGCTTGTGCAGAGAACCTTAGGAGGTTGGGAGTAAGGGTTGCAACGGGTCCGGACTGGATTGAGATACACCCTGGTCCAGCTACTGGTGCTCAAGTCACAAGCTATGGTGATCACAGAATTGTGATGTCATTTGCAGTGACTGGACTTCGTGTGCCTGGGATCAGCTTCGACGACCCTGGCTGTGTTCGTAAGACTTTTCCTGGGTTTCACGAGGCTTTCGCAGAATTGAGGCGTGGCATTGGGAGCTGA",% Injury Ave,Arabidopsis [1]; [3],17.5%
same,% Injury Range (%),Arabidopsis [1]; [3],0-60%
same,No. plants with 20-40% injury,Arabidopsis [1]; [3],0
same,No. plants with <20% injury,Arabidopsis [1]; [3],3
same,No. plants with >40% injury,Arabidopsis [1]; [3],1
same,% Injury Ave,Arabidopsis [1]; [4],39.5%
same,% Injury Range (%),Arabidopsis [1]; [4],18-70%
same,No. plants with 20-40% injury,Arabidopsis [1]; [4],1
same,No. plants with <20% injury,Arabidopsis [1]; [4],1
same,No. plants with >40% injury,Arabidopsis [1]; [4],2
same,% Injury Ave,Arabidopsis [1]; [5],26.3%
same,% Injury Range (%),Arabidopsis [1]; [5],5-80%
same,No. plants with 20-40% injury,Arabidopsis [1]; [5],0
same,No. plants with <20% injury,Arabidopsis [1]; [5],3
same,No. plants with >40% injury,Arabidopsis [1]; [5],1
same,% Injury Ave,Arabidopsis [1]; [6],25.8%
same,% Injury Range (%),Arabidopsis [1]; [6],8-75%
same,No. plants with 20-40% injury,Arabidopsis [1]; [6],0
same,No. plants with <20% injury,Arabidopsis [1]; [6],3
same,No. plants with >40% injury,Arabidopsis [1]; [6],1
same,% Injury Ave,Arabidopsis [1]; [7],26.3%
same,% Injury Range (%),Arabidopsis [1]; [7],5-80%
same,No. plants with 20-40% injury,Arabidopsis [1]; [7],0
same,No. plants with <20% injury,Arabidopsis [1]; [7],3
same,No. plants with >40% injury,Arabidopsis [1]; [7],1
same,% Injury Ave,Arabidopsis [1]; [8],2.0%
same,% Injury Range (%),Arabidopsis [1]; [8],0-8%
same,No. plants with 20-40% injury,Arabidopsis [1]; [8],0
same,No. plants with <20% injury,Arabidopsis [1]; [8],4
same,No. plants with >40% injury,Arabidopsis [1]; [8],0
same,% Injury Ave,Arabidopsis [1]; [9],9.0%
same,% Injury Range (%),Arabidopsis [1]; [9],8-12%
same,No. plants with 20-40% injury,Arabidopsis [1]; [9],0
same,No. plants with <20% injury,Arabidopsis [1]; [9],4
same,No. plants with >40% injury,Arabidopsis [1]; [9],0
same,% Injury Ave,Arabidopsis [1]; [10],7.3%
same,% Injury Range (%),Arabidopsis [1]; [10],2-12%
same,No. plants with 20-40% injury,Arabidopsis [1]; [10],0
same,No. plants with <20% injury,Arabidopsis [1]; [10],4
same,No. plants with >40% injury,Arabidopsis [1]; [10],0
same,% Injury Ave,Arabidopsis [1]; [11],11.0%
same,% Injury Range (%),Arabidopsis [1]; [11],10-12%
same,No. plants with 20-40% injury,Arabidopsis [1]; [11],0
same,No. plants with <20% injury,Arabidopsis [1]; [11],4
same,No. plants with >40% injury,Arabidopsis [1]; [11],0
same,T1 Families Tested Segregating at 1 Locus (%),Arabidopsis [2],100%
